The target of this experiment is mouse LAG3 on Pmel-1 or Pmel-1xLy108 KO splenocytes (mouse) (UniProt Q61790). Briefly: cell-based or functional assay.
UniProt Q61790, sequence (Q61790 24-521): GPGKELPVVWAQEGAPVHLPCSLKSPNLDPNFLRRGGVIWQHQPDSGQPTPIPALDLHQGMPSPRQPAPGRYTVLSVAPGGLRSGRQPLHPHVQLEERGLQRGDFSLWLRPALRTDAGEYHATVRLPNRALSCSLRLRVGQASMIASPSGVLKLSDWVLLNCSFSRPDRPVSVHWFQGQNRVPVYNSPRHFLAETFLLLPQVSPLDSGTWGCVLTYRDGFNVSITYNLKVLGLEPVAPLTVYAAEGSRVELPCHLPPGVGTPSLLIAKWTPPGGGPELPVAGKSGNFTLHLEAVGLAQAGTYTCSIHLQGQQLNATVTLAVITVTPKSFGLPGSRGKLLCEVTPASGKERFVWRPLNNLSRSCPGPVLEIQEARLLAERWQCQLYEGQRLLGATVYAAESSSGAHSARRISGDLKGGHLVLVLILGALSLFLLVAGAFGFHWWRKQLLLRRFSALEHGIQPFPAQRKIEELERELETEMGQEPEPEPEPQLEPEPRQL

Regarding “anti-LAG3 blocking antibody (BioXCell, clone: C9B7W, cat: BE0174)”, the IFN-γ production (ELISA), Pmel-1×Ly108 KO cells with anti-LAG3 compared to Ly108-expressing cells was 3 fold and the IFN-γ secretion (ELISA) of Pmel-1 splenocytes activated with anti Lag3 (10 µg/ml), compared to no treatment worked out at 1.5 fold.

The values are drawn from US20260151420A1.
